For the test, the target named is T1, SRC1a-M1234 (human, UniProt Q15788 1-1441, [35S]-labelled).
T1 construct: range 1-1441; also called mutant SRC1
The experiment in a line: GST pulldown, +/- 10^-6 M E2.

T1 sequence (Q15788 other isoform, or with tags, fused parts or gaps limits assumed): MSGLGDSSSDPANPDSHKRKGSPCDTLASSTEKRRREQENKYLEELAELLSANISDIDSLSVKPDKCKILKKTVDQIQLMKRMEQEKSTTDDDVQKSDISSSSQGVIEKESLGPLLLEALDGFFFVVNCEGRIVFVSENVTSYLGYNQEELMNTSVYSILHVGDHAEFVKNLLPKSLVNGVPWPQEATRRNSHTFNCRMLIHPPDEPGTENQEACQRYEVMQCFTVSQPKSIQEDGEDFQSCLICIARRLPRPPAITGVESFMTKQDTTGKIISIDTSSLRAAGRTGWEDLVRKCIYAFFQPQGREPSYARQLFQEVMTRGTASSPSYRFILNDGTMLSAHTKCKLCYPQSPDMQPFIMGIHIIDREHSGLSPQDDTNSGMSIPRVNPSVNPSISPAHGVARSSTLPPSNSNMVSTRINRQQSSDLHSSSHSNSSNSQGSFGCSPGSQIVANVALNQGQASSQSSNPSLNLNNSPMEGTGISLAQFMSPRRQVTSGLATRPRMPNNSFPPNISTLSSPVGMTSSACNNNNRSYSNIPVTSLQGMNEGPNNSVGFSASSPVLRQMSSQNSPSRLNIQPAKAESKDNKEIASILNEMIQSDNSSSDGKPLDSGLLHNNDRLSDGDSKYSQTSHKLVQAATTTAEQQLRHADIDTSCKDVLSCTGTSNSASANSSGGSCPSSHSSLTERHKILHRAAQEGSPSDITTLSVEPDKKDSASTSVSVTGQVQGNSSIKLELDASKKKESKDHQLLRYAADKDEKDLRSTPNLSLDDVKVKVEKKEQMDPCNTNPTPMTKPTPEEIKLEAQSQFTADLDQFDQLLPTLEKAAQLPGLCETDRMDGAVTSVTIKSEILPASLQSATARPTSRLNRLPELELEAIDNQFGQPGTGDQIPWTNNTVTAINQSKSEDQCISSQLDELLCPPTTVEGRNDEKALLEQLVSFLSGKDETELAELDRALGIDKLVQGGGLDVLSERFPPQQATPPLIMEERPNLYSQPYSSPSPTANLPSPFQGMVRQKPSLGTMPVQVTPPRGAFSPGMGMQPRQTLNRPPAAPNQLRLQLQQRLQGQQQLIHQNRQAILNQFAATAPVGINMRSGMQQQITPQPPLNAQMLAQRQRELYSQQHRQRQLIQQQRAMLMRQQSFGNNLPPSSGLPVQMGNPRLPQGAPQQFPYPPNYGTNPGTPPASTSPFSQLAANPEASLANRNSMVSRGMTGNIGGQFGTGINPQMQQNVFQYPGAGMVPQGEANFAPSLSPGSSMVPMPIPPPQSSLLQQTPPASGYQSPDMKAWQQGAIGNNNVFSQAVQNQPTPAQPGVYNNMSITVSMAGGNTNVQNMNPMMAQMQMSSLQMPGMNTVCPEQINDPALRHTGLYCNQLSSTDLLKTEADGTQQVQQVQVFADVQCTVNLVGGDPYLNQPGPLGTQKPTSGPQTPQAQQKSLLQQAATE

B1: GST-AF2 (ligand binding domain of the mouse estrogen receptor fused to glutathione-S-transferase) (receptor, UniProt P19785 313-599, looked up)
chain: SLTADQMVSALLDAEPPMIYSEYDPSRPFSEASMMGLLTNLADRELVHMINWAKRVPGFGDLNLHDQVHLLECAWLEILMIGLVWRSMEHPGKLLFAPNLLLDRNQGKCVEGMVEIFDMLLATSSRFRMMNLQGEEFVCLKSIILLNSGVYTFLSSTLKSLEEKDHIHRVLDKITDTLIHLMAKAGLTLQQQHRRLAQLLLILSHIRHMSNKGMEHLYNMKCKNVVPLYDLLLEMLDAHRLHAPASRMGVPPEEPSQTQLATTSSTSAHSLQTYYIPPEAEGFPNTI
notes: range 313-599; Loaded on glutathione beads; tested with or without 10^-6 M E2; also called ER LBD; not shown: glutathione-S-transferase (GST)
In the case of B1, the binding result is reported as “no binding”.

These data come from patent EP0980526B1 (IMPERIAL CANCER RESEARCH TECHNOLOGY LIMITED, dated 1998).
